Results reported in patent US20160194407A1 (AstraZeneca / MedImmune, published 2016).

How the values were obtained:
[1] = target: T1, cynomolgus CD73 extracellular domain (ECD) (cynomolgus); experiment: SPR ProteOn, antibody captured by anti-human Fc, CD73 ECD in mobile phase, 1:1 model
T1 construct: extracellular domain; also called Cynomolgus CD73 ECD; cyno CD73 (SPR Proteon)

human CD73 N185G = target: T2, human CD73 N185G (human, UniProt P21589 27-553, N185G); experiment: SPR ProteOn, His-tagged CD73 variant on HTG chip, 2:1 fit
T2 sequence: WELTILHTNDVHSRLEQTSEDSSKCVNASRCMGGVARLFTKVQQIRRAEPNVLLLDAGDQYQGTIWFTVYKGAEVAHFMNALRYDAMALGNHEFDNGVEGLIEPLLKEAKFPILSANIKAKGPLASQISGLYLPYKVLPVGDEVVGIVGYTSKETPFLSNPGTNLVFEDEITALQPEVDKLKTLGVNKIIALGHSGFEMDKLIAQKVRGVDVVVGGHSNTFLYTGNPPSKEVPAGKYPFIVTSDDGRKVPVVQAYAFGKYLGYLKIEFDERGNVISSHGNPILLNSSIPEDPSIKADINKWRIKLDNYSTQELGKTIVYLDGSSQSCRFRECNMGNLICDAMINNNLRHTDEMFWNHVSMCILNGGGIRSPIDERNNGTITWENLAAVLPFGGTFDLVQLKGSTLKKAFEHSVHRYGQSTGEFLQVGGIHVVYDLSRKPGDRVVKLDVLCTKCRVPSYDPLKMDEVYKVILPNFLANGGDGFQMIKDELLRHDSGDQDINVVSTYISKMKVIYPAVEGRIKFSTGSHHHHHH

[2] = target: T3, CD73 construct with chicken N- and C-terminal domain sequence and knocked-in human V144 and N185; experiment: SPR ProteOn, His-tagged CD73 variant on HTG chip
T3 construct: K180 is conserved between chicken and human; also called chicken CD73 replaced with V144 and N185; knock-in
T3 chain: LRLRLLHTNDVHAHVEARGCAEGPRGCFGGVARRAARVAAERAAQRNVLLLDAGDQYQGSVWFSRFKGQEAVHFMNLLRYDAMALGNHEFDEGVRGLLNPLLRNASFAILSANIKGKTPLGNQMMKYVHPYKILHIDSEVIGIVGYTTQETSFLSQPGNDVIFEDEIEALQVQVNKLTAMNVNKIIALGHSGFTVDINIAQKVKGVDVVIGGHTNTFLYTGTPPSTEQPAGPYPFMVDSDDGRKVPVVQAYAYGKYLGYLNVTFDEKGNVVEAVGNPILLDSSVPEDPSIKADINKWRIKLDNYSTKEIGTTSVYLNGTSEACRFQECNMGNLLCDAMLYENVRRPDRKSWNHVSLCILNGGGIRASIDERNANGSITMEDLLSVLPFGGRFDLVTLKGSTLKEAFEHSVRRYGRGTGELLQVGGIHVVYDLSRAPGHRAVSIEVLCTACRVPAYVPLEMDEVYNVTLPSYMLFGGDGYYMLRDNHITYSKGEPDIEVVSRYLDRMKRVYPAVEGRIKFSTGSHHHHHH
Experimental: CD73 crude cell supernatant protein samples were diluted to 3 μg/ml in PBS, 0.005% Tween-20, pH 7.4 (BioRad) and immobilized to ˜400 RU on a HTG tris-NTA sensor chip (BioRad) pre-activated with 10 mM NiSO₄, 10 mM MES, pH 6.0 (BioRad). An equivalently diluted crude cell supernatant sample from non-transfected cells was included as a reference channel control. […] Antibody binding was measured at a flow rate of 100 μL/min with a 3 min association phase and 20 min dissociation phase. The sensor chip surface was regenerated between each run by an 800 s injection of 300 mM EDTA, pH 8.5 (BioRad) at a flow rate of 30 μL/min. Binding kinetics were analyzed using the ProteOn data analysis software. Double referencing was performed and, unless noted otherwise, a 1:1 Langmuir binding model was utilized to fit the data. […] Where noted, these variants were fit with a heterogenous antigen (2:1) model.

[3] = target: T1, cynomolgus CD73 extracellular domain …; experiment: SPR (Proteon), IgG1-TM

B1: MEDI9447 (antibody, V domains shown)
VH: EVQLLESGGGLVQPGGSLRLSCAASGFTFSSYAYSWVRQAPGKGLEWVSAISGSGGRTYYADSVKGRFTISRDNSKNTLYLQMNSLRAEDTAVYYCARLGYGRVDEWGRGTLVTVSS
VL: QSVLTQPPSASGTPGQRVTISCSGSLSNIGRNPVNWYQQLPGTAPKLLIYLDNLRLSGVPDRFSGSKSGTSASLAISGLQSEDEADYYCATWDDSHPGWTFGGGTKLTVL
notes: also called clone 10.3 antibody; 73combo3
**Q.** For B1, which Kd [1] is on record?
**A.** 6.5 pM

**Q.** What about the koff [1] of the same binder?
**A.** 1.76e-05 s⁻¹

**Q.** What about the kon [1] of the same binder?
**A.** 2.71e+06 M⁻¹ s⁻¹

**Q.** What about the koff (human CD73 N185G) of the same binder?
**A.** 0.000245 s⁻¹

**Q.** What about the kon (human CD73 N185G) of the same binder?
**A.** 9.11e+06 M⁻¹ s⁻¹

**Q.** And the Kd [2]?
**A.** 79 pM

**Q.** What about the Kd [3] of the same binder?
**A.** 7 pM
